# Source: patent publication US20170233470A1 (INSERM INSTITUT NATIONAL DE LA SANT ET DE LA RECHERCHE M …, published 2017)
# Target: Neurotensin (NTS) (UniProt P30990 151-163)
# Assay: cell-based or functional assay
binder,measurement,value
"NTSp27-7.4 (antibody, V domains shown) VH: DVKLVESGGGLVKLGGSLKLSCAASGFTFSGYYMSWVRQTPEKRLELVAAINNYGDNTNYPDTVKGRFSVSRDNAKNTLYLEMNSLKSEDTALYYCARLANYANQRGAMDYWGQGTSVTVSS VL: DIQMTHTTSSLSASLGDRVTISCRASQDIANYLNWYQQKPDGTVTLLIYYTSRLHSGVPSRFSGSGSGTDYSLTINNLDQEDIATYFCQQGYTLPPTFGGGTKLEIK","apoptosis of A2780 cells (Annexin V-FITC/PI, flow cytometry), fold increase relative to control cells",2.5 fold
same,"apoptosis of SKOV3 cells (Annexin V-FITC/PI, flow cytometry), fold increase relative to control cells",8.2 fold
